Target: T1, Pick bodies (cellular inclusions of Pick's disease, only constituted of 3R tau proteins) (human, UniProt P10636-5 2-410, limits assumed)
T1 construct: Target in tissue sections (IHC)
Assay: IHC on human paraffin sections, Pick's disease
Method: Immunohistochemistry was performed on formalin-fixed tissues (paraffin-embedded or frozen sections or vibratome sections). Standard IHC protocols were applied and adapted for each tissue conditions. As most of immunostaining experiments were performed using paraffin sections, a detailed protocol for paraffin-embedded material is described herein. Immunostaining of brain tissue was performed on 4 µm thick paraffin sections. Both human and mouse tissues were used (Human patients with AD or other tauopathies and Tg4510 mice (Santacruz et al. 2005 Science, 309, 476-481). Sections were de-paraffinized in xylene, rehydrated through ethanol (100%, 90%, and 70%), 5 min for each solution and finally brought to running tap water for 10 min. They were then incubated in 98% formic acid for 5 min, washed again under running tap water, quenched for endogenous peroxidase with 3% hydrogen peroxide and 20% methanol, and finally washed in water. Non-specific binding was blocked by incubating the sections for 30 min in 2% bovine serum albumin in TBS+0.5% Tween. Appropriate dilutions of primary antibodies (1-10 µg/ml of VHH with either His or Strep tag) were then applied and slices incubated overnight in a humidified chamber at 4° C. […]

T1 sequence (P10636 other isoform, or with tags, fused parts or gaps limits assumed): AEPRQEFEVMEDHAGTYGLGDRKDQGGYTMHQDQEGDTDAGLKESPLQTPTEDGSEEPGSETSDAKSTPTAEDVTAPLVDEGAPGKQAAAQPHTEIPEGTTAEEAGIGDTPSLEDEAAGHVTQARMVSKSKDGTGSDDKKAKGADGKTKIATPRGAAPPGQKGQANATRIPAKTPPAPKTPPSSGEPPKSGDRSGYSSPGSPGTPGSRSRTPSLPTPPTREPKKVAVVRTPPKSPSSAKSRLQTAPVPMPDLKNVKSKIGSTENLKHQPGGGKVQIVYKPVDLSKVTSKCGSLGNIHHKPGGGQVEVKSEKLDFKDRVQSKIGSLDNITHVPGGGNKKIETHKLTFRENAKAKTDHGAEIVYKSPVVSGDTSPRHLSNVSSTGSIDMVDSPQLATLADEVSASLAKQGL

B1: VHH Tau-A2 (VHH)
VHH: EVQLQASGGGLVQAGGSLRLSCAASGRSFSGSTMEWYRQAPGKERKFVAAIRTISSRTYYVDSVKGRFTISRDSTKNTVYLQLNSLKVEDTAVYYCAARFSGTIGTTSSVDYWGQGTQVTVSS
notes: Alpaca VHH, expressed in E. coli with a His-tag or a Strep-tag; monomeric by DLS; not shown: 6-Histidine tag (pET23d) or C-terminal Strep-tag (pASK IBA2)
- binding result: no binding
